# Source: PMC6378684 (Journal of Molecular Biology, 2019)
# T1: Cut7MD (fission yeast kinesin-5 Cut7 motor domain) (Schizosaccharomyces pombe, UniProt P24339)
# T1 construct: monomeric motor domain, residues 67-432, lacks N-terminal extension; His6 tag removed by TEV; expressed in E. coli BL21*(DE3)
# T1 sequence (P24339 67-432): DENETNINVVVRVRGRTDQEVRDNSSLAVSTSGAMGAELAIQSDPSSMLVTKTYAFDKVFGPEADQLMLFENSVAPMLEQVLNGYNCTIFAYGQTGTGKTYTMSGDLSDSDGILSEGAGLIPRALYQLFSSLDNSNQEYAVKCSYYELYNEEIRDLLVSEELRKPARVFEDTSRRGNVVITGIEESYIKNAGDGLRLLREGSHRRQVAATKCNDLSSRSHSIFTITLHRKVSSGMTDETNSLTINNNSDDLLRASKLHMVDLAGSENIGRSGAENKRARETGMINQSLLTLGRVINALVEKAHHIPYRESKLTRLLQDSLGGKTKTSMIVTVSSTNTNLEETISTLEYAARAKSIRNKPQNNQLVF
# B1: Cut7 motor domain (Cut7MD), residues 67–432 of the fission yeast kinesin-5 Cut7, P24339 67-432 (domain or fragment)
# chain: T1 sequence (P24339 67-432)
# Assays:
# [1] = molecular target: T1, Cut7MD (fission yeast kinesin-5 Cut7 motor domain); assay: microtubule-stimulated steady-state ATPase, enzyme-coupled; assay type: biochemical; conditions: 3.8 μM motor; 100 nM mammalian (bovine) microtubules
# [2] = molecular target: T1, Cut7MD (fission yeast kinesin-5 Cut7 motor domain); assay: cryo-EM structure, […] Å; assay type: binding; conditions: nucleotide pocket, with Mg; bound to S. pombe microtubules
# [3] = molecular target: S. pombe tubulin microtubules (Sp_tub MTs), epothilone-stabilised (S. pombe) (UniProt P04688)
# S. pombe tubulin microtubules (Sp_tub MTs), epothilone-stabilised (S. pombe), sequence (P04688 whole entry, chain 1 of 2, the tested form may be a part): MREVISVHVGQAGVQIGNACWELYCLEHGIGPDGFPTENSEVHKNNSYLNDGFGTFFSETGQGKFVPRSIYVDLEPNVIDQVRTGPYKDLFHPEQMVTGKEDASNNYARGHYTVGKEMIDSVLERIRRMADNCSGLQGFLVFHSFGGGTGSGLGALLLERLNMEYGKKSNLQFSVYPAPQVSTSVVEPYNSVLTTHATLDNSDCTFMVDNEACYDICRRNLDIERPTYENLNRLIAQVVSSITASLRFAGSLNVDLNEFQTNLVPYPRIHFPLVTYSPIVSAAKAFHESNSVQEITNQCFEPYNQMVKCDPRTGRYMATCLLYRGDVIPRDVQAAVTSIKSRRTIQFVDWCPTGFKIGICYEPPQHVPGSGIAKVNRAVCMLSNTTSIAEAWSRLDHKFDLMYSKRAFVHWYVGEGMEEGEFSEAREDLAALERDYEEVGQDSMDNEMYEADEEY
# S. pombe tubulin microtubules (Sp_tub MTs), epothilone-stabilised (S. pombe), sequence (P05219 whole entry, chain 2 of 2, further chain, the tested form may be a part): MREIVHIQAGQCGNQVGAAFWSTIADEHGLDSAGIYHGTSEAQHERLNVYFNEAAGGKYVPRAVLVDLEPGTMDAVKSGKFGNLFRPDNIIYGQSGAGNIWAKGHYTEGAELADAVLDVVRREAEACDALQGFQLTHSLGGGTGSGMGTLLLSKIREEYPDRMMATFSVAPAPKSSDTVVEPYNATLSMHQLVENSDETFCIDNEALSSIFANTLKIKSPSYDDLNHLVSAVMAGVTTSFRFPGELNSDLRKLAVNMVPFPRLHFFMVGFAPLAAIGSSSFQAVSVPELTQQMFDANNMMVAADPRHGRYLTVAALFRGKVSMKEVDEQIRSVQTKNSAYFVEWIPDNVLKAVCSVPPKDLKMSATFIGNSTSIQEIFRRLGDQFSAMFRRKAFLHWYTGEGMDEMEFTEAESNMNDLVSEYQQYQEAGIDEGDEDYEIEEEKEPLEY
# [4] = molecular target: T1, Cut7MD (fission yeast kinesin-5 Cut7 motor domain); assay: microtubule-stimulated ATPase, pyruvate kinase / lactate dehydrogenase coupled; assay type: biochemical; conditions: 5 mM ATP; epothilone-stabilised S. pombe microtubules; 1 mM MgCl2, pH 8.0, 32 °C
# [5] = molecular target: Mammalian brain tubulin microtubules (Mam_tub MTs), paclitaxel-stabilised (bovine), Q6B856
# Mammalian brain tubulin microtubules (Mam_tub MTs), paclitaxel-stabilised (bovine), Q6B856, sequence (Q6B856 whole entry, looked up): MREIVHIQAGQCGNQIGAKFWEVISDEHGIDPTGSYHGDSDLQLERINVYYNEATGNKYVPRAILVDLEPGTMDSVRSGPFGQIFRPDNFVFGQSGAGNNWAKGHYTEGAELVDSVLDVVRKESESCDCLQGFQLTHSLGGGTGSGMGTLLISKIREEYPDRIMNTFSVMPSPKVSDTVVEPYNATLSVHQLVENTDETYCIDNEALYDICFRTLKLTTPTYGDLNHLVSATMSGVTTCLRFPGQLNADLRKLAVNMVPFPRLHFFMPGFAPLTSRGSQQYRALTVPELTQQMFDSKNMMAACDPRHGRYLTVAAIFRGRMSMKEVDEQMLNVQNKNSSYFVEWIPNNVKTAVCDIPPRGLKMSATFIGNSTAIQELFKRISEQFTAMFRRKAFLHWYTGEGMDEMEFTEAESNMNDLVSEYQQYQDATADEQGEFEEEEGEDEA
molecule,measurement,setting,value
"N[C@@H](CSC(c1ccccc1)(c1ccccc1)c1ccccc1)C(=O)O [STLC, (+)-S-trityl-L-cysteine]",% of their uninhibited rates at 2 μM and 20 μM,[1],Cut7MD is not detectably inhibited by STLC
"Nc1ncnc2c1ncn2[C@@H]1O[C@H](COP(=O)(O)OP(=O)(O)NP(=O)(O)O)[C@@H](O)[C@H]1O [AMPPNP, adenosine 5′-(β,γ-imido)triphosphate]","cryo-EM structure, 4.5 Å",[2],strong density in the nucleotide binding pocket corresponding to bound Mg-AMPPNP
"Cut7 motor domain (Cut7MD), residues 67–432 of the fission yeast kinesin-5 Cut7 (from UniProt P24339 67-432) (domain or fragment)",K0.5MT of the MT-stimulated steady-state ATPase of Cut7MD (Hanes–Woolf plot),[3],13.4 nM
same,K0.5MT of the MT-stimulated steady-state ATPase of Cut7MD (Michaelis–Menten fit),[3],13.9 nM
same,Vmax of the MT-stimulated steady-state ATPase of Cut7MD (Hanes–Woolf plot),[3],1.17 ATP/s
same,Vmax of the MT-stimulated steady-state ATPase of Cut7MD (Michaelis–Menten fit),[3],1.14 ATP/s
Nc1ncnc2c1ncn2[C@@H]1O[C@H](COP(=O)(O)OP(=O)(O)OP(=O)(O)O)[C@@H](O)[C@H]1O [ATP],"microtubule-stimulated ATPase, pyruvate kinase / lactate dehydrogenase coupled",[4],we measured the steady-state ATPase activity of Cut7MD on Sp_tub MTs and Mam_tub MTs
B1,K0.5MT of the MT-stimulated steady-state ATPase of Cut7MD (Hanes–Woolf plot),[5],14.3 nM
same,K0.5MT of the MT-stimulated steady-state ATPase of Cut7MD (Michaelis–Menten fit),[5],19.9 nM
same,Vmax of the MT-stimulated steady-state ATPase of Cut7MD (Hanes–Woolf plot),[5],1.19 ATP/s
same,Vmax of the MT-stimulated steady-state ATPase of Cut7MD (Michaelis–Menten fit),[5],1.25 ATP/s
